Assay results reported in US7183387 (Genentech, dated 2007).
Substitutions are numbered along the chain they refer to. Names and notes keep the numbering of the source. One block for each binder: values may come before it.

What was measured:
[1] = molecular target: T1, human neonatal Fc receptor (FcRn), biotinylated (human, UniProt P55899 24-297; P61769 21-119, biotinylated (biotin-X-NHS)); experiment: FcRn ELISA
T1 construct: captured on streptavidin plates
Description: FcRn Binding ELISA: For measuring FcRn binding activity of IgG variants, ELISA plates were coated with 2 µg/ml streptavidin (Zymed, South San Francisco) in 50 mM carbonate buffer, pH 9.6, at 4° C. overnight and blocked with PBS-0.5% BSA, pH 7.2 at room temperature for one hour. Biotinylated FcRn (prepared using biotin-X-NHS from Research Organics, Cleveland, Ohio and used at 1–2 µg/ml) in PBS-0.5% BSA, 0.05% polysorbate 20, pH 7.2, was added to the plate and incubated for one hour. Two fold serial dilutions of IgG standard (1.6–100 ng/ml) or variants in PBS-0.5% BSA, 0.05% polysorbate 20, pH 6.0, were added to the plate and incubated for two hours. Bound IgG was detected using peroxidase labeled goat F(ab')_2 anti-human IgG F(ab')_2 in the above pH 6.0 buffer (Jackson ImmunoResearch, West Grove, Pa.) followed by 3,3',5,5'-tetramethyl benzidine (Kirgaard & Perry Laboratories) as the substrate. […] Absorbance was read at 450 nm on a Vmax plate reader (Molecular Devices, Menlo Park, Calif.). Titration curves were fit with a four-parameter nonlinear regression curve-fitting program (KaleidaGraph, Synergy software, Reading, Pa.). Concentrations of IgG variants corresponding to the mid-point absorbance of the titration curve of the standard were calculated and then divided by the concentration of the standard corresponding to the mid-point absorbance of the standard titration curve.

[2] = molecular target: T2, human FcγRIIIA-Val158 α subunit extracellular domain-His6-GST fusion protein (human, UniProt P08637 17-208); experiment: ELISA format, hexameric complex on FcγRIIIA-Val158
T2 construct: ELISA-format target; also called FcγRIIIA-V158; not shown: glutathione S-transferase (GST)
T2 sequence (P08637 other isoform, or with tags, fused parts or gaps, form in doubt): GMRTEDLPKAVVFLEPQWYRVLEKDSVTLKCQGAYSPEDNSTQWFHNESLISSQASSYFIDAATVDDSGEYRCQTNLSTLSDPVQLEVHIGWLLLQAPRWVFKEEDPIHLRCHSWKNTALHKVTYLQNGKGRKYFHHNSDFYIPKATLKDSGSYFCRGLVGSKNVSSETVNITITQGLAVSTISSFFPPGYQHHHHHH

[3] = molecular target: T3, human FcγRIIIA-Phe158 with human γ-chain on stably transfected CHO cells (human, UniProt P08637 17-254; P30273 19-86); experiment: flow cytometry, monomeric IgG on CHO cells with FcγRIIIA-Phe158 α- and γ-chains
T3 construct: whole, on cells; CHO cells stably transfected with the α- and γ-chains of the receptor; also called FcγRIIIA-Phe158 (cell-based assay)
T3 sequence (P08637 17-254, chain 1 of 2): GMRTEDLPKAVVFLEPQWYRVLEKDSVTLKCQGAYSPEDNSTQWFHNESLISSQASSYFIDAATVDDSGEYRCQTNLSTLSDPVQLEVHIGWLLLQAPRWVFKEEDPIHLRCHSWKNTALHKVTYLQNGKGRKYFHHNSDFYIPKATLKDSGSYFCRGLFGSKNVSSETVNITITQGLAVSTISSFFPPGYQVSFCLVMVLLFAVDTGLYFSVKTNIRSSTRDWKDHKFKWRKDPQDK
T3 sequence (P30273 19-86, chain 2 of 2): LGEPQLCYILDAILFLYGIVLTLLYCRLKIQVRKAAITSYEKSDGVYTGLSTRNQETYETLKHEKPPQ
Description: CHO cell transfection was carried out using Superfect (Qiagen) according to the manufacturer's instructions. […] Receptor expression levels were determined by staining with anti-FcγRIII monoclonal antibody 3G8 (Medarex). Binding of IgG1 variants was performed by adding monomeric IgG in staining buffer to 5×10^5 cells and incubating in 96 well round-bottom tissue culture plates (Costar, Cambridge, Mass.) at 4° C. for 30 min. Cells were washed three times with staining buffer and IgG binding detected by addition of 1:200 PE-F(ab')_2 fragment of goat anti-human IgG and incubation for 30 min at 4° C. After washing, immunofluorescence staining was analyzed on a FACScan flow cytometer using Cellquest software (Becton Dickinson). Dead cells were excluded from analysis by addition of 1 μg/ml propidium iodide.
For FcγRIIIA, the selected variants were assayed in the ELISA-format as well as on stable-transfected CHO cell lines expressing the γ-chains (FcγRIIIA-Phe158 or FcγRIIIA-Val158) with the associated human α-chain.

[4] = molecular target: T4, human FcγRIIIA-Phe158 α subunit extracellular domain-His6-GST fusion protein (human, UniProt P08637 17-208); experiment: ELISA, IgG:IgE hexamer on coated FcγRIIIA-Phe158-GST; value carried over from an earlier table (printed in Table 8)
T4 construct: ELISA-format target; also called FcγRIIIA-F158; not shown: glutathione S-transferase (GST)
T4 sequence (P08637 other isoform, or with tags, fused parts or gaps, form in doubt): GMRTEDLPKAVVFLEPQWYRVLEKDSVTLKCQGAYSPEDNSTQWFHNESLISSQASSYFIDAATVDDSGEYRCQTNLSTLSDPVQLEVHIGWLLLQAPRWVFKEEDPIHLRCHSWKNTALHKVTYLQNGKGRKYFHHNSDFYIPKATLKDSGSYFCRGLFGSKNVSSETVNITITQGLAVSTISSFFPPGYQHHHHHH

[5] = molecular target: T5, human FcγRIIIA-Val158 with human γ-chain on stably transfected CHO cells (human, UniProt P08637 17-254; P30273 19-86); experiment: flow cytometry, monomeric IgG on CHO cells with FcγRIIIA-Val158 α- and γ-chains
T5 construct: whole, on cells; CHO cells stably transfected with the α- and γ-chains of the receptor; also called FcγRIIIA-Val158 (cell-based assay); FcγRIIIA-V158
T5 sequence (P08637 17-254 F176V, chain 1 of 2): as the sequence (P08637 17-254, chain 1 of 2) above, with F160V counted along it
T5 sequence (P30273 19-86, chain 2 of 2): as the sequence (P30273 19-86, chain 2 of 2) above

[6] = molecular target: T4, human FcγRIIIA-Phe158 α subunit …; experiment: ELISA format, hexameric complex on FcγRIIIA-Phe158; separate assays run together with the Val158 assays
[7] = molecular target: T6, human FcγRIIB α subunit extracellular domain-6His-GST fusion (human, UniProt P31994 43-217); experiment: ELISA, IgG:IgE hexamers on receptor-GST
T6 construct: not shown: glutathione S-transferase (GST)
T6 sequence: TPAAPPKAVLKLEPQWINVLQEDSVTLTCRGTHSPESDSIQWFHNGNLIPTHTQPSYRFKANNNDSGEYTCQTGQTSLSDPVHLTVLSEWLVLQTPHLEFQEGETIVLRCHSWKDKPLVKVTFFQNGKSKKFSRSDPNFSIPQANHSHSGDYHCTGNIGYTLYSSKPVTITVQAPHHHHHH

[8] = molecular target: T7, human FcγRIIA-H131 α subunit extracellular domain-6His-GST fusion (human, UniProt P12318 34-217); experiment: ELISA, IgG:IgE hexamers on receptor-GST
T7 construct: also called FcγRIIA-His131; not shown: glutathione S-transferase (GST)
T7 sequence: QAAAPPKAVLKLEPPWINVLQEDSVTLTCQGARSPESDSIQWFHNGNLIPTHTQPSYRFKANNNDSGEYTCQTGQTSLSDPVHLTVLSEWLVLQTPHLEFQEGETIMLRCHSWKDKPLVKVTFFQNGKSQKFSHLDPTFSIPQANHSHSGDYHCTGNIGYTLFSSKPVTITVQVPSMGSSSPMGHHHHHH

[9] = molecular target: T8, human FcγRIIA-R131 α subunit extracellular domain-6His-GST fusion (human, UniProt P12318 34-217); experiment: ELISA, IgG:IgE hexamers on receptor-GST
T8 construct: also called FcγRIIA-Arg131; not shown: glutathione S-transferase (GST)
T8 sequence: T7 sequence with H134R

[10] = molecular target: T9, human FcγRIIIA-F158 α subunit extracellular domain-6His-GST fusion (human, UniProt P08637 17-208); experiment: ELISA, IgG:IgE hexamers on receptor-GST
T9 construct: also called FcγRIIIA-Phe158; not shown: glutathione S-transferase (GST)

binding result [1]: binds
B1: anti-IgE E27 IgG1 T307Q (antibody)
heavy: not shown
light: DIQLTQSPSSLSASVGDRVTITCRASKPVDGEGDSYLNWYQQKPGKAPKLLIYAASYLESGVPSRFSGSGSGTDFTLTISSLQPEDFATYYCQQSHEDPYTFGQGTKVEIKRTVAAPSVFIFPPSDEQLKSGTASVVCLLNNFYPREAKVQWKVDNALQSGNSQESVTEQDSKDSTYSLSSTLTLSKADYEKHKVYACEVTHQGLSSPVTKSFNRGEC

ratio of binding of the variant to that of native IgG1 [2]: 1.11 ratio (variant/native IgG1)
ratio of binding of the variant to that of native IgG1 [3]: 3.42 ratio (variant/native IgG1)
ratio of binding of the variant to that of native IgG1 [4]: 1.51 ratio (variant/native IgG1)
ratio of binding of the variant to that of native IgG1 [5]: 1.65 ratio (variant/native IgG1)
ratio of binding of the variant to that of native IgG1 [6]: 2.17 ratio (variant/native IgG1)
B2: anti-IgE E27 IgG1 variant Ser298Ala/Glu333Ala/Lys334Ala (antibody)
heavy: EVQLVESGGGLVQPGGSLRLSCAVSGYSITSGYSWNWIRQAPGKGLEWVASIKYSGETKYNPSVKGRITISRDDSKNTFYLQMNSLRAEDTAVYYCARGSHYFGHWHFAVWGQGTLVTVSSASTKGPSVFPLAPSSKSTSGGTAALGCLVKDYFPEPVTVSWNSGALTSGVHTFPAVLQSSGLYSLSSVVTVPSSSLGTQTYICNVNHKPSNTKVDKKVEPKSCDKTHTCPPCPAPELLGGPSVFLFPPKPKDTLMISRTPEVTCVVVDVSHEDPEVKFNWYVDGVEVHNAKTKPREEQYNATYRVVSVLTVLHQDWLNGKEYKCKVSNKALPAPIAATISKAKGQPREPQVYTLPPSREEMTKNQVSLTCLVKGFYPSDIAVEWESNGQPENNYKTTPPVLDSDGSFFLYSKLTVDKSRWQQGNVFSCSVMHEALHNHYTQKSLSLSPGK
light: B1 light
notes: also called IG2 110

ratio to native IgG1 [7]: 0.95
ratio to native IgG1 [8]: 0.59
ratio to native IgG1 [9]: 1.18
ratio to native IgG1 [10]: 0.08
B3: E27 IgG1 variant S267(280)G (antibody)
heavy: not shown
light: B1 light
notes: also called IG2 189
